The record followed here is patent CN116478288A (ZHEJIANG BLUE SHIELD PHARMA CO LTD, dated 2023).

B1: 嵌合抗体ID 3 (antibody, human IgG4 S228P, kappa, V domains shown)
VH: QVQLQQPGAELVKPGAPVKLSCKASGYTFTSYWMNWVKQRPGRGLEWIGRIDSSDSETHYNQKFKDKATLTVDKSSSTAYIQLSSLTSEDSAVYYCARQGEGLRRSWFPYWGQGTLVIVSA
VL: DIVLTQSPASLAVSLGQRATISCRASKSVSTSGYSYIHWYQQKPGQPPKLLIYVASNLQSGVPARFSGSGSGTDFTLNIHPVEEEDAATYYCQHIRELPWTFGGGTKLEIKR
B2: 人源化抗体ID 5 (antibody, human IgG4 S228P, kappa)
heavy: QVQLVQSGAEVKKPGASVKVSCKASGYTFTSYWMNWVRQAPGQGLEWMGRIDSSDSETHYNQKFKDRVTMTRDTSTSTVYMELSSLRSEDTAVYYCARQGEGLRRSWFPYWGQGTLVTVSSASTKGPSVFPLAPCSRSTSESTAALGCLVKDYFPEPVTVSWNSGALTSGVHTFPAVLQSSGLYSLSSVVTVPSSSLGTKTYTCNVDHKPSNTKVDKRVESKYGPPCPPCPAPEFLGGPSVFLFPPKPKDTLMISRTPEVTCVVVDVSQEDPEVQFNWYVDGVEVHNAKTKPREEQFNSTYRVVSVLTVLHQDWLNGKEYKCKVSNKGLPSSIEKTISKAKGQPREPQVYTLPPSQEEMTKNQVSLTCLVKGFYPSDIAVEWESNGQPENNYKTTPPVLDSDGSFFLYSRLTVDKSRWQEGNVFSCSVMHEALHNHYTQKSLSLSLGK
light: DIVMTQSPDSLAVSLGERATINCRASKSVSTSGYSYIHWYQQKPGQPPKLLIYVASNLQSGVPDRFSGSGSGTDFTLTISSVQAEDVAVYYCQHIRELPWTFGQGTKVEIKRTVAAPSVFIFPPSDEQLKSGTASVVCLLNNFYPREAKVQWKVDNALQSGNSQESVTEQDSKDSTYSLSSTLTLSKADYEKHKVYACEVTHQGLSSPVTKSFNRGEC
notes: Humanized, human IgG4; also called VH1+VL2
B3: 人源化抗体ID 2 (antibody, human IgG4 S228P, kappa)
heavy: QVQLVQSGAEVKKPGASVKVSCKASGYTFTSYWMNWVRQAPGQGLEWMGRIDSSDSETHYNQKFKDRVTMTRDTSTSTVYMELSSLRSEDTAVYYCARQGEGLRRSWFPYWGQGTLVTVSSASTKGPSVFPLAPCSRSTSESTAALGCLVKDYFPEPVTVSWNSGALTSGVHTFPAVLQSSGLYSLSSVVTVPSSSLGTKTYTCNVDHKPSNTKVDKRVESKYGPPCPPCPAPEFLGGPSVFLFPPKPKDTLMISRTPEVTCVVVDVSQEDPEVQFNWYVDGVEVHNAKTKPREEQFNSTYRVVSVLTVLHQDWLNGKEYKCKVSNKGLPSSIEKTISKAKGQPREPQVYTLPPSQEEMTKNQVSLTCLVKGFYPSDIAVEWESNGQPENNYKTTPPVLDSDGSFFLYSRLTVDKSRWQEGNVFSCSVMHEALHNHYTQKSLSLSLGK
light: DIVMTQSPDSLAVSLGERATINCRASKSVSTSGYSYIHWYQQKPGQPPKLLIYVASNLQSGVPDRFSGSGSGTDFTLTISSVQAEDVAVYYCQHIRELPWTFGQGTKLEIKRTVAAPSVFIFPPSDEQLKSGTASVVCLLNNFYPREAKVQWKVDNALQSGNSQESVTEQDSKDSTYSLSSTLTLSKADYEKHKVYACEVTHQGLSSPVTKSFNRGEC
notes: Humanized, human IgG4 constant region and human light chain constant region, expressed in 293F cells; also called VH1+VL3
B4: 人源化抗体ID 4 (antibody, human IgG4 S228P, kappa, V domains shown)
VH: QVQLVQSGAEVKKPGASVKVSCKASGYTFTSYWMNWVRQAPGQGLEWMGRIDSSDSETHYNQKFKDRVTMTRDTSTSTVYMELSSLRSEDTAVYYCARQGEGLRRSWFPYWGQGTLVTVSS
VL: DIVMTQSPDSLAVSLGERATINCRASKSVSTSGYSYIHWYQQKPGQPPKLLIYVASNLQSGVPDRFSGSGSGTDFTLTISSLQAEDVAVYYCQHIRELPWTFGQGTKVEIKR
notes: Humanized, human IgG4; also called VH1+VL1

For the assay, the target named is T1, (融合小鼠Fc的)CD47 (human, UniProt Q08722 19-139, limits assumed).
T1 construct: also called CD47-mFC; not shown: mouse Fc
T1 sequence (Q08722 19-139 limits assumed): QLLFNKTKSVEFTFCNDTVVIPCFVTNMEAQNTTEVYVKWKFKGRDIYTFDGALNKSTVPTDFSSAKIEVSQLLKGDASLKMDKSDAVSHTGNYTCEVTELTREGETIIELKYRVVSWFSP
Description: SPR Biacore 8K, antibody on CM5 chip, CD47-mFc as analyte, 1:1 fit, 25 C.
Broadly, the Kd is the free concentration of one partner at which half of the binding sites on the other are occupied at equilibrium, for simple one-to-one binding. A high value points to weaker binding. Usually koff stands for the first-order rate constant of dissociation. Usually kon stands for the rate constant with which the complex forms. A higher kon goes with faster complex formation. Molecule B1 gave a Kd of 668 pM, a koff of 0.000265 s⁻¹ and a kon of 397000 M⁻¹ s⁻¹.

B2 displayed an equilibrium dissociation constant (Kd) of 623 pM, a dissociation rate constant (koff) of 0.000303 s⁻¹ and a kon of 486000 M⁻¹ s⁻¹.

The molecule B3 yielded an equilibrium dissociation constant (Kd) of 623 pM, a koff of 0.000283 s⁻¹ and a kon of 454000 M⁻¹ s⁻¹.

The molecule B4 had a Kd of 790 pM, a koff of 0.00038 s⁻¹ and a kon of 482000 M⁻¹ s⁻¹.
